Residue numbers refer to the chain shown, from its start. In names and notes the source's numbering stands.
B1: ALG-2^F122A, full-length recombinant (natural protein, human, UniProt O75340 1-191, looked up)
chain: MAAYSYRPGPGAGPGPAAGAALPDQSFLWNVFQRVDKDRSGVISDTELQQALSNGTWTPFNPVTVRSIISMFDRENKAGVNFSEFTGVWKYITDWQNVFRTYDRDNSGMIDKNELKQALSGAGYRLSDQFHDILIRKFDRQGRGQIAFDDFIQGCIVLQRLTDIFRRYDTDQDGWIQVSYEQYLSMVFSIV
notes: ALG-2, human, 191 residues, Phe122 substituted with Ala; PDB 2ZN8 is the wild-type full-length parent
B2: ALG-2^F122S, full-length recombinant (natural protein, human, UniProt O75340 1-191, looked up)
chain: B1 chain with A122S
notes: ALG-2, human, 191 residues, Phe122 substituted with Ser; PDB 2ZN8 is the wild-type full-length parent
B3: ALG-2^F122G, full-length recombinant (natural protein, human, UniProt O75340 1-191, looked up)
chain: B1 chain with A122G
notes: ALG-2, human, 191 residues, Phe122 substituted with Gly; PDB 2ZN8 is the wild-type full-length parent
B4: ALG-2^F122W, full-length recombinant (natural protein, human, UniProt O75340 1-191, looked up)
chain: B1 chain with A122W
notes: ALG-2, human, 191 residues, Phe122 substituted with Trp; PDB 2ZN8 is the wild-type full-length parent
B5: synthetic peptide of the ALG-2-binding site in Alix with N-terminal linker (peptide)
peptide: KGGSGGSQGPPYPTYPGYPGYSQ
notes: linker, printed in lower case; also called Alix ABS peptide; ABS oligopeptide; source: synthetic peptide (Biosynthesis Inc., USA)

Key:
[1] = molecular target: B5; test: SPR; Biacore2000, 25°C; Alix ABS peptide immobilized on CM5 chip; ALG-2 proteins 100 nM in HBS-P (10 mM HEPES-NaOH pH 7.4, 150 mM NaCl, 0.005% P20) with 100 μM CaCl2, 20 μl/min, injected 180 s; resonance signal at 10 s before dissociation phase relative to WT; conditions: both partners purified
[2] = molecular target: T1, ALG-2 (apoptosis-linked gene 2), wild type, full-length recombinant (human, UniProt O75340 1-191); test: as above; conditions: both partners purified
T1 construct: ALG-2, human, 22-kDa protein of 191 amino acid residues; longer (major) isoform regarded as wild type; also called WT; wild-type ALG-2

Row | relative binding capacity (% of WT resonance signal) [1] [%] | binding result [2] | Binder
1 | 240 |  | B1
2 | 89 |  | B2
3 | 140 |  | B3
4 | 36 |  | B4
5 |  | binds | B5

From article PMC2927601, “Molecular basis for defect in Alix-binding by alternatively spliced isoform of ALG-2 (ALG-2^ΔGF122) and structural roles of F122 in target recognition” (BMC Structural Biology, 2010)
